Assay [1] has as its target FoxP1 FKH domain, single-cysteine mutant N32C (on C61S) labelled with Oregon Green 488 (human). In words: fluorescence polarisation. For orientation: In fluorescence polarisation assays a small probe gives low polarisation when free and higher when bound to something large.
Assay [2] shares this target. In words: fluorescence polarisation. The source holds these as a separate data set.

The term Kd denotes the equilibrium constant for the complex coming apart. Usually kon stands for the rate constant with which the complex forms. A lower kon goes with slower complex formation.

Read-outs that look alike come from different tables or passages of the source.

B1: FoxP2 FKH domain, unlabeled (domain or fragment)
chain: VRPPFTYATLIRQAIMESSDRQLTLNEIYSWFTRTFAYFRRNAATWKNAVRHNLSLHKCFVRVENVKGAVWTVDEVEYQKRRSQKITGSPTL
In assay [1], B1 registered an equilibrium dissociation constant (Kd) of 18 µM and an on-rate constant (kon) of 583 M⁻¹ s⁻¹. In assay [2], this molecule came in with a Kd of 38 µM.

(Values after publication PMC10362293.)
